Test results as given in patent US20230136228A1 (LAMKAP BIO ALPHA, published 2023).

T1: shed soluble CEACAM5 (sCEA) (human, UniProt P06731 35-685, limits assumed)
T1 sequence (looked up): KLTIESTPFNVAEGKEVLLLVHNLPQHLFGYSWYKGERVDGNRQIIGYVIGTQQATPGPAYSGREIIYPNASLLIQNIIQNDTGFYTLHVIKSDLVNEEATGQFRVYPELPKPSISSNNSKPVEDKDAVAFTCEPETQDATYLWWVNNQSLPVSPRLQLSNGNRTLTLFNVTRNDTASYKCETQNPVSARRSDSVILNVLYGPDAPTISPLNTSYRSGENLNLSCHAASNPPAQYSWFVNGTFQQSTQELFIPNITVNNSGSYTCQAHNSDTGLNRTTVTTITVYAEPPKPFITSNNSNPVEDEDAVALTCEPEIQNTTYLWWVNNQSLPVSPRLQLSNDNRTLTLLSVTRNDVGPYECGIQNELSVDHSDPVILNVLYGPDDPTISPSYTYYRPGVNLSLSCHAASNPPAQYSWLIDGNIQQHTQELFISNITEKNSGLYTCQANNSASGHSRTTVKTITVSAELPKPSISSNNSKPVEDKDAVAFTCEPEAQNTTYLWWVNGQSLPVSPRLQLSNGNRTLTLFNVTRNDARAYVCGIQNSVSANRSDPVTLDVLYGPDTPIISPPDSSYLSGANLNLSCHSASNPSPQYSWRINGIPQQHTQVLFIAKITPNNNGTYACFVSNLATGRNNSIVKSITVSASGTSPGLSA

T2: human CEACAM5 (carcinoembryonic antigen, CEA), cell surface (human, UniProt P06731 35-685)
T2 sequence (looked up): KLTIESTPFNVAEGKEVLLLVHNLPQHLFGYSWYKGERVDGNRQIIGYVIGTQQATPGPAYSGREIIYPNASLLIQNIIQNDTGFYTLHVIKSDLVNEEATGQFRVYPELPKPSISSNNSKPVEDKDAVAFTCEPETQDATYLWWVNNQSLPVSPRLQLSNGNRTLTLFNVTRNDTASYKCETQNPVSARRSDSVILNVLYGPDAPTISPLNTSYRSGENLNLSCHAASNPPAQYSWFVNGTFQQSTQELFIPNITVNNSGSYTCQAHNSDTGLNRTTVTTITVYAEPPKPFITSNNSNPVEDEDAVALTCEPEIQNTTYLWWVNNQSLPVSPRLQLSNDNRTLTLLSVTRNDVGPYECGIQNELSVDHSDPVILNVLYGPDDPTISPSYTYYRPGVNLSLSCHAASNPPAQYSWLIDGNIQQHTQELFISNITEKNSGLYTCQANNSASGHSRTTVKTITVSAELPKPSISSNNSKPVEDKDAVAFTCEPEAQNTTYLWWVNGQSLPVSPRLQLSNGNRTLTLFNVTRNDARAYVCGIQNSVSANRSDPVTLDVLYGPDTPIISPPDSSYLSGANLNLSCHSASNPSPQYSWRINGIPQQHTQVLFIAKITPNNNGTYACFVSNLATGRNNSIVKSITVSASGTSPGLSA


Legend:
[1] = target: T1, shed soluble CEACAM5 (sCEA); assay: cell-based or functional assay
[2] = target: T2, human CEACAM5 (carcinoembryonic …); assay: cell-based or functional assay
[3] = target: T3, human CD3ε (human, UniProt P07766 23-207); assay: flow cytometry, primary CD4+ and CD8+ T-cells
T3 construct: whole, on cells; Present on cells as part of the CD3/TCR complex; also called CD3 epsilon

[4] = target: T2, human CEACAM5 (carcinoembryonic …); assay: flow cytometry, MKN-45 cells
From the text: Examples of cells that can be used include CEACAM5-positive cell lines such as the gastric adenocarcinoma cell line MKN45 (expressing 155′000 CEACAM5 molecules per cell), or the pancreatic adenocarcinoma cell line HPAF-II (expressing 108′000 CEACAM5 molecules per cell) or the colorectal adenocarcinoma cell line LS174T (expressing 26′000 CEACAM5 molecules per cell) and CEACAM5-negative cell lines, such as the lung carcinoma cell line A549 and the MKN45 CEACAM5-knock out cell line generated by CRISPR-CAS9 methodology. Cell staining and binding assessment can be performed as described above. Binding of the bsAb of the invention at 200 nM, 1000 nM and 5000 nM is 40% and higher compared to binding of TCB2014 (see Table 4 and also FIGS. 11 and 14).

[5] = target: T2, human CEACAM5 (carcinoembryonic …); assay: flow cytometry, CEA positive cells
[6] = target: T3, human CD3ε; assay: flow cytometry, HUT-78 cells
[7] = target: T2, human CEACAM5 (carcinoembryonic …); assay: flow cytometry, MKN-45 and/or HPAF-II cells

T3 sequence (P07766 23-207): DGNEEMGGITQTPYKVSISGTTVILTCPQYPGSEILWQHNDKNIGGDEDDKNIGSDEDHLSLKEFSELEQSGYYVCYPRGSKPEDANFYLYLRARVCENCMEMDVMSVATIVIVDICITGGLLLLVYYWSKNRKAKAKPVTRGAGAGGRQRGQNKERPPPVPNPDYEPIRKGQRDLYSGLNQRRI

Binder | EC50 fold change compared to no shed CEA condition, sCEA 0 µg/mL (reference) [1] [fold] | EC50 fold change compared to no shed CEA condition, sCEA 0.2 µg/mL [1] [fold] | EC50 fold change compared to no shed CEA condition, sCEA 1 µg/mL [1] [fold] | EC50 fold change compared to no shed CEA condition, sCEA 5 µg/mL [1] [fold] | Killing EC50, HPAFII cells (TDCC, LDH release) [2] [pM] | Killing EC50, LS174T cells (TDCC, LDH release) [2] [pM] | Killing EC50, MKN45 cells (TDCC, LDH release) [2] [pM] | binding result [3] | EC50 [4] [pM] | Top MFI value [4] [MFI] | binding higher than TCB2014 (at 200 nM, 1000 nM and 5000 nM) [4] [%] | binding higher than TCB2014 (at 200 nM) [5] [%] | binding result [6] | binding higher than TCB2014 (at 100 nM) [7] [%]
AB54L3-1/N (bispecific antibody, human IgG1, kappa, lambda, L234A L235A, Kappa-lambda body, lead optimization wave 2) heavy: EVQLVESGGGLVQPGGSLKLSCAASGFTFNTYAMNWVRQAPGKGLEWVGRIRSKYNNYATYYADSVKDRFTISRDDSKNTAYLQMNSLKTEDTAVYYCVRHGNFGNSYVSWFAYWGQGTLVTVSSASTKGPSVFPLAPSSKSTSGGTAALGCLVKDYFPEPVTVSWNSGALTSGVHTFPAVLQSSGLYSLSSVVTVPSSSLGTQTYICNVNHKPSNTKVDKRVEPKSCDKTHTCPPCPAPEAAGGPSVFLFPPKPKDTLMISRTPEVTCVVVDVSHEDPEVKFNWYVDGVEVHNAKTKPREEQYNSTYRVVSVLTVLHQDWLNGKEYKCKVSNKALAAPIEKTISKAKGQPREPQVYTLPPSREEMTKNQVSLTCLVKGFYPSDIAVEWESNGQPENNYKTTPPVLDSDGSFFLYSKLTVDKSRWQQGNVFSCSVMHEALHNHYTQKSLSLSPG light 1: EIVLTQSPATLSLSPGERATLSCRASQEVHKNLNWYQQKPGQAPRLLIYHSSNRATGIPARFSGSGSGTDFTLTISSLEPEDFAVYYCQQFNYHHEHNTFGQGTKVEIKRTVAAPSVFIFPPSDEQLKSGTASVVCLLNNFYPREAKVQWKVDNALQSGNSQESVTEQDSKDSTYSLSSTLTLSKADYEKHKVYACEVTHQGLSSPVTKSFNRGEC light 2: QTVVTQEPSLTVSPGGTVTLTCRSSTGAVTTSNYANWFQQKPGQAPRGLIGGTNKRAPGTPARFSGSLLGGKAALTLSGAQPEDEAEYYCALWYKQRWVFGGGTKLTVLGQPKAAPSVTLFPPSSEELQANKATLVCLISDFYPGAVTVAWKADSSPVKAGVETTTPSKQSNNKYAASSYLSLTPEQWKSHRSYSCQVTHEGSTVEKTVAPTECS | 1 | 0.9 | 4.6 | 5.7 | 100 | 130 | 110 | binds | 66400 | 760000 | ≥ 40 | ≥ 40 | – | –
AB14L3-1/N (bispecific antibody, human IgG1, kappa, lambda, L234A L235A, Kappa-lambda body, lead optimization wave 1) heavy: EVQLVESGGGLVQPGGSLKLSCAASGFTFNTYAMNWVRQAPGKGLEWVGRIRSKYNNYATYYADSVKDRFTISRDDSKNTAYLQMNSLKTEDTAVYYCVRHGNFGNSYVSWFAYWGQGTLVTVSSASTKGPSVFPLAPSSKSTSGGTAALGCLVKDYFPEPVTVSWNSGALTSGVHTFPAVLQSSGLYSLSSVVTVPSSSLGTQTYICNVNHKPSNTKVDKRVEPKSCDKTHTCPPCPAPEAAGGPSVFLFPPKPKDTLMISRTPEVTCVVVDVSHEDPEVKFNWYVDGVEVHNAKTKPREEQYNSTYRVVSVLTVLHQDWLNGKEYKCKVSNKALAAPIEKTISKAKGQPREPQVYTLPPSREEMTKNQVSLTCLVKGFYPSDIAVEWESNGQPENNYKTTPPVLDSDGSFFLYSKLTVDKSRWQQGNVFSCSVMHEALHNHYTQKSLSLSPG light 1: EIVLTQSPATLSLSPGERATLSCRASQSVNSNLNWYQQKPGQAPRLLIYHGSNRATGIPARFSGSGSGTDFTLTISSLEPEDFAVYYCQQFDYFRESNTFGQGTKVEIKRTVAAPSVFIFPPSDEQLKSGTASVVCLLNNFYPREAKVQWKVDNALQSGNSQESVTEQDSKDSTYSLSSTLTLSKADYEKHKVYACEVTHQGLSSPVTKSFNRGEC light 2: QTVVTQEPSLTVSPGGTVTLTCRSSTGAVTTSNYANWFQQKPGQAPRGLIGGTNKRAPGTPARFSGSLLGGKAALTLSGAQPEDEAEYYCALWYKQRWVFGGGTKLTVLGQPKAAPSVTLFPPSSEELQANKATLVCLISDFYPGAVTVAWKADSSPVKAGVETTTPSKQSNNKYAASSYLSLTPEQWKSHRSYSCQVTHEGSTVEKTVAPTECS | – | – | – | – | – | – | – | – | – | – | – | – | binds | ≥ 40
AB15L3-1/N (bispecific antibody, human IgG1, kappa, lambda, L234A L235A, Kappa-lambda body, lead optimization wave 1) heavy: EVQLVESGGGLVQPGGSLKLSCAASGFTFNTYAMNWVRQAPGKGLEWVGRIRSKYNNYATYYADSVKDRFTISRDDSKNTAYLQMNSLKTEDTAVYYCVRHGNFGNSYVSWFAYWGQGTLVTVSSASTKGPSVFPLAPSSKSTSGGTAALGCLVKDYFPEPVTVSWNSGALTSGVHTFPAVLQSSGLYSLSSVVTVPSSSLGTQTYICNVNHKPSNTKVDKRVEPKSCDKTHTCPPCPAPEAAGGPSVFLFPPKPKDTLMISRTPEVTCVVVDVSHEDPEVKFNWYVDGVEVHNAKTKPREEQYNSTYRVVSVLTVLHQDWLNGKEYKCKVSNKALAAPIEKTISKAKGQPREPQVYTLPPSREEMTKNQVSLTCLVKGFYPSDIAVEWESNGQPENNYKTTPPVLDSDGSFFLYSKLTVDKSRWQQGNVFSCSVMHEALHNHYTQKSLSLSPG light 1: EIVLTQSPATLSLSPGERATLSCRASQTVNNNLNWYQQKPGQSPRLLIYYASNRATGIPARFSGSGSGTDFTLTISSLEPEDFAVYYCQQFNYHHEHNTFGQGTKVEIKRTVAAPSVFIFPPSDEQLKSGTASVVCLLNNFYPREAKVQWKVDNALQSGNSQESVTEQDSKDSTYSLSSTLTLSKADYEKHKVYACEVTHQGLSSPVTKSFNRGEC light 2: QTVVTQEPSLTVSPGGTVTLTCRSSTGAVTTSNYANWFQQKPGQAPRGLIGGTNKRAPGTPARFSGSLLGGKAALTLSGAQPEDEAEYYCALWYKQRWVFGGGTKLTVLGQPKAAPSVTLFPPSSEELQANKATLVCLISDFYPGAVTVAWKADSSPVKAGVETTTPSKQSNNKYAASSYLSLTPEQWKSHRSYSCQVTHEGSTVEKTVAPTECS | – | – | – | – | – | – | – | – | – | – | – | – | binds | ≥ 40
